From patent US20250257126A1 (CAMBRIDGE ENTERPRISE, published 2025)

Key:
[1] = molecular target: T1, human LGR4 transgene (human, UniProt Q9BXB1 25-951); assay: immunofluorescence of HEK293T cells expressing LGR-eGFP transgenes with α-LGR5v4
T1 construct: whole, on cells; Overexpressed in HEK293T cells with N-terminal HA tag, V2 receptor tail and eGFP; also tested as lysate; also called hLGR4; LGR4-eGFP
Description: (§1) B. Indirect immune fluorescence analysis of human and murine LGR family expressing HEK293T cells using the a-LGR5v4 antibody (in red), the Alexa488-coupled Phalloidin F-actin probe alongside eGFP fluorescence imaging. In the bottom row of images, LGR5-expressing HEK293T cells were stained with a-LGR5v6. C. H&E staining of tissue sections from a-LGR5v6-ADC (top row) and a-LGR5v4-ADC (bottom row) treated mice.

[2] = molecular target: T2, murine LGR4 transgene (mouse, UniProt A2ARI4 25-951); assay: as above
T2 construct: whole, on cells; Overexpressed in HEK293T cells with N-terminal HA tag, V2 receptor tail and eGFP; also tested as lysate; also called mLGR4
Description: as §1

[3] = molecular target: T3, human LGR6 transgene (human, UniProt Q9HBX8 25-967); assay: indirect immunofluorescence on HEK293T cells expressing human and murine LGR family transgenes (FIG. 14B)
T3 construct: whole, on cells; Overexpressed in HEK293T cells with N-terminal HA tag, V2 receptor tail and eGFP; also tested as lysate; also called hLGR6; LGR6-eGFP
T3 sequence (looked up): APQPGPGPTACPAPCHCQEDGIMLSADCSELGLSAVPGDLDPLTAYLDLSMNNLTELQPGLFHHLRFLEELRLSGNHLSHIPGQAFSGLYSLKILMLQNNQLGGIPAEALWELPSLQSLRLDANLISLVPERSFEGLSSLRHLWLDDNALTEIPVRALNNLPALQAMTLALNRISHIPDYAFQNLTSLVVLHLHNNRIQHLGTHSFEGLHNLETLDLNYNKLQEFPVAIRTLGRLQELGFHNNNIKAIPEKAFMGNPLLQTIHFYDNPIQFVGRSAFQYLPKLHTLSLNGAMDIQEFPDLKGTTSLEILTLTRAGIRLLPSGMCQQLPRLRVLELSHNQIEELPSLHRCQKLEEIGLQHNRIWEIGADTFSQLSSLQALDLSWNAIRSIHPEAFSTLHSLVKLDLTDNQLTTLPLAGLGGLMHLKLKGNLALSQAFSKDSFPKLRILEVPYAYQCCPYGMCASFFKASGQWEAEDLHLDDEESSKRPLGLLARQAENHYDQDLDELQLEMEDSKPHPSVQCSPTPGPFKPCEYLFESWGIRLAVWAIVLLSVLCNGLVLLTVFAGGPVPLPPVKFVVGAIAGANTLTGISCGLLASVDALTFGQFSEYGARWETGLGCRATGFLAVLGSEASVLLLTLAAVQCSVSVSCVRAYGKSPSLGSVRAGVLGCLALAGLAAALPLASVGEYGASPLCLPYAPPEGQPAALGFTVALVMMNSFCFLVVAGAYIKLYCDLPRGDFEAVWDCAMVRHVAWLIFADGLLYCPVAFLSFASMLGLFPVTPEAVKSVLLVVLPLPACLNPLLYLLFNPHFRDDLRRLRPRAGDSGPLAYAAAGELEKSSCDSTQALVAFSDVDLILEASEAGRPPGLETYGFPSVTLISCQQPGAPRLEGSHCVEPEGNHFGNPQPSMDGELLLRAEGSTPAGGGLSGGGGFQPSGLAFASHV

[4] = molecular target: T4, murine LGR6 transgene (mouse, UniProt Q3UVD5 23-967); assay: as above
T4 construct: whole, on cells; also called mLGR6
T4 sequence (looked up): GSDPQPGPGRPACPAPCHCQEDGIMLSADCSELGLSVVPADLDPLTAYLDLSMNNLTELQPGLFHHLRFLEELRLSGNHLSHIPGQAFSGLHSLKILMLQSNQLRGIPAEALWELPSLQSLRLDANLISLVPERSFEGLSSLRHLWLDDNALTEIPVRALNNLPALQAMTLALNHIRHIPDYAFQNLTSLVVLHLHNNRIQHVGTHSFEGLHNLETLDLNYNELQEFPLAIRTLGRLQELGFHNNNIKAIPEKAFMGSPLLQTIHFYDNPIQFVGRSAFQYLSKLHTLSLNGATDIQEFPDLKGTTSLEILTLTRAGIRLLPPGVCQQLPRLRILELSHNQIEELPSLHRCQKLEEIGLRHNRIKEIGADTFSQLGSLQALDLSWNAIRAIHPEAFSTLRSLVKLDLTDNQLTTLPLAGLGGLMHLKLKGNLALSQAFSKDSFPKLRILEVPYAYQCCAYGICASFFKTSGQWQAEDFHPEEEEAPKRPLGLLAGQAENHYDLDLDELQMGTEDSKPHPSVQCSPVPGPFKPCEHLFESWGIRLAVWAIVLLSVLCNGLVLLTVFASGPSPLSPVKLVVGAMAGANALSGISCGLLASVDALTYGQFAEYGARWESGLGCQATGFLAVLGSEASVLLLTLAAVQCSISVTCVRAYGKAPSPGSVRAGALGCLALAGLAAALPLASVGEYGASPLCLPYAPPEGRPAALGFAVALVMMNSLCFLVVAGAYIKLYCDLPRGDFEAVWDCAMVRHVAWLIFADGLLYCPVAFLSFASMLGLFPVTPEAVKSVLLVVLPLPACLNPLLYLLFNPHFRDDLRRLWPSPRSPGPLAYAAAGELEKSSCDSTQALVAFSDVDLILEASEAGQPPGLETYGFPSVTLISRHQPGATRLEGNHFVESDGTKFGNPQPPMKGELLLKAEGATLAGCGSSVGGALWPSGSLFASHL

Measured: binding result

B1: α-LGR5 variant 4 (antibody, human IgG1, kappa, V domains shown)
VH: QVQLVQSGAEVKKPGASVKVSCKASGYTFTNYWMQWVRQAPGQGLEWIGEIDPSDSYTNYNQKFQGRVTLTVDTSTSTAYMELSSLRSEDTAVYYCARSLSGYVDYWGQGTTVTVSS
VL: EIVMTQSPATLSLSPGERATLSCRASQDISNRLNWYQQKPGQAVRLLISYRSRRHTGIPARFSGSGSGTDYTLTISSLEPEDFAVYYCQQGNSLPPTFGGGTKLEIKR
notes: Humanized antibody; also called α-LGR5v4; clone 2.4
no binding: all assays above
